Measured values reported in article PMC3408336.

What was measured:
[1] = molecular target: CD4 mimetic miniprotein M48U1; experiment: fluorescence polarization; conditions: read off a plot
[2] = molecular target: SF162 gp120 D474N (HIV-1 SF162 (subtype B)); experiment: fluorescence polarisation; fluorescently labelled M48 or M48U1 with purified monomeric recombinant SF162 gp120 (concentrations standardised by ELISA with D7324); LJL Analyst reader; Kd by non-linear regression; results given as fold increase in Kd relative to native SF162 gp120; as in ref. 68
[3] = molecular target: SF162 gp120 G335R (HIV-1 SF162 (subtype B)); experiment: as above
[4] = molecular target: SF162 gp120 L494V (HIV-1 SF162 (subtype B)); experiment: as above
[5] = molecular target: SF162 gp120 S375N (HIV-1 SF162 (subtype B)); experiment: as above

Substance: SF162 gp120, wild type (monomeric recombinant) S375R
- ratio to parent [1]: 1900

Substance: SF162 gp120, wild type (monomeric recombinant) G471R
- ratio to parent [1]: 3.8

Substance: SF162 gp120, wild type (monomeric recombinant) V255M
- ratio to parent [1]: 9.6

Substance: CD4 mimetic miniprotein M48U1 (designed binder)
- fold Kd relative to WT SF162 gp120 [2]: 1 fold
- fold Kd relative to WT SF162 gp120 [3]: 1 fold
- fold Kd relative to WT SF162 gp120 [4]: 1 fold
- fold Kd relative to WT SF162 gp120 [5]: 1 fold

Substance: SF162 gp120, wild type (monomeric recombinant) H105Y
- ratio to parent [1]: 3.8
